# Test results published in IntAct's records for PubMed 31515488.
# B1: Calcium-binding and coiled-coil domain-containing protein 2 (Homo sapiens), Q13137 (parent)
# chain: MEETIKDPPTSAVLLDHCHFSQVIFNSVEKFYIPGGDVTCHYTFTQHFIPRRKDWIGIFRVGWKTTREYYTFMWVTLPIDLNNKSAKQQEVQFKAYYLPKDDEYYQFCYVDEDGVVRGASIPFQFRPENEEDILVVTTQGEVEEIEQHNKELCKENQELKDSCISLQKQNSDMQAELQKKQEELETLQSINKKLELKVKEQKDYWETELLQLKEQNQKMSSENEKMGIRVDQLQAQLSTQEKEMEKLVQGDQDKTEQLEQLKKENDHLFLSLTEQRKDQKKLEQTVEQMKQNETTAMKKQQELMDENFDLSKRLSENEIICNALQRQKERLEGENDLLKRENSRLLSYMGLDFNSLPYQVPTSDEGGARQNPGLAYGNPYSGIQESSSPSPLSIKKCPICKADDICDHTLEQQQMQPLCFNCPICDKIFPATEKQIFEDHVFCHSL
# partner: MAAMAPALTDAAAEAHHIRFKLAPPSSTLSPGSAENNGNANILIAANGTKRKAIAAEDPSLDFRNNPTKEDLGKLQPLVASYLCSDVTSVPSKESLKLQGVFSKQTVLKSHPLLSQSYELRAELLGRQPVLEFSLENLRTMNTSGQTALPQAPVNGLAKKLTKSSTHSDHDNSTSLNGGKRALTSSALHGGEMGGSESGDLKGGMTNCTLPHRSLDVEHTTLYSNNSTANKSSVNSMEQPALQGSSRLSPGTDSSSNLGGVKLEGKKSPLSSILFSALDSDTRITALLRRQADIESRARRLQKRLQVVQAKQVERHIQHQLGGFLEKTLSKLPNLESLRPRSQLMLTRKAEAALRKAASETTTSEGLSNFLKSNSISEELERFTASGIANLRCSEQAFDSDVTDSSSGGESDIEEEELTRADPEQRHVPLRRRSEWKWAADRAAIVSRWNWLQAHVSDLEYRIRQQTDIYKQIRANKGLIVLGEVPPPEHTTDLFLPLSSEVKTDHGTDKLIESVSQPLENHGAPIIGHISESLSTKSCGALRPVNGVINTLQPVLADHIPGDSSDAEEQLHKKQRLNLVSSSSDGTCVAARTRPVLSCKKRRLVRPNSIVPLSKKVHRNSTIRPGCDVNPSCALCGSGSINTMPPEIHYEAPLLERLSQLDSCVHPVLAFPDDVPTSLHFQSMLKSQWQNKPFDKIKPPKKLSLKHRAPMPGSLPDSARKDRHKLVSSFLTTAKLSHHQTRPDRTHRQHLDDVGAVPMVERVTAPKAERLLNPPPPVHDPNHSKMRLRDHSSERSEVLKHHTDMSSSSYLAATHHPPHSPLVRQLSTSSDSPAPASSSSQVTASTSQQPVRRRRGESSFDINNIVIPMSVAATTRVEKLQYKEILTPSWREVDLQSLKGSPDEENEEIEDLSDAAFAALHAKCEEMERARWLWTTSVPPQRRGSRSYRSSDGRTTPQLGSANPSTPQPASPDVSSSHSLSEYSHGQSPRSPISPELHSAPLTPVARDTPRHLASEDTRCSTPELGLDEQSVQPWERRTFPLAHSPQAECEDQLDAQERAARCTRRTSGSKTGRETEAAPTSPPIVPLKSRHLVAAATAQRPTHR
# B2: Notch homolog 2 N-terminal-like protein A (Homo sapiens), Q7Z3S9 (parent)
# chain: MCVTYHNGTGYCKCPEGFLGEYCQHRDPCEKNRCQNGGTCVAQAMLGKATCRCASGFTGEDCQYSTSHPCFVSRPCLNGGTCHMLSRDTYECTCQVGFTGKECQWTDACLSHPCANGSTCTTVANQFSCKCLTGFTGQKCETDVNECDIPGHCQHGGTCLNLPGSYQCQCLQGFTGQYCDSLYVPCAPSPCVNGGTCRQTGDFTFECNCLPETVRRGTELWERDREVWNGKEHDEN
# partner: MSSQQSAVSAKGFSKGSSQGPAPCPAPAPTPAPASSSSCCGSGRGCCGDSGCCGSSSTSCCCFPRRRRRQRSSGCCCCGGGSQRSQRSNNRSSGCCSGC
# B3: Ribonuclease P protein subunit p30 (Homo sapiens), P78346 (parent)
# chain: MAVFADLDLRAGSDLKALRGLVETAAHLGYSVVAINHIVDFKEKKQEIEKPVAVSELFTTLPIVQGKSRPIKILTRLTIIVSDPSHCNVLRATSSRARLYDVVAVFPKTEKLFHIACTHLDVDLVCITVTEKLPFYFKRPPINVAIDRGLAFELVYSPAIKDSTMRRYTISSALNLMQICKGKNVIISSAAERPLEIRGPYDVANLGLLFGLSESDAKAAVSTNCRAALLHGETRKTAFGIISTVKKPRPSEGDEDCLPASKKAKCEG
# B4: Zyxin (Homo sapiens), Q15942 (parent)
# chain: MAAPRPSPAISVSVSAPAFYAPQKKFGPVVAPKPKVNPFRPGDSEPPPAPGAQRAQMGRVGEIPPPPPEDFPLPPPPLAGDGDDAEGALGGAFPPPPPPIEESFPPAPLEEEIFPSPPPPPEEEGGPEAPIPPPPQPREKVSSIDLEIDSLSSLLDDMTKNDPFKARVSSGYVPPPVATPFSSKSSTKPAAGGTAPLPPWKSPSSSQPLPQVPAPAQSQTQFHVQPQPQPKPQVQLHVQSQTQPVSLANTQPRGPPASSPAPAPKFSPVTPKFTPVASKFSPGAPGGSGSQPNQKLGHPEALSAGTGSPQPPSFTYAQQREKPRVQEKQHPVPPPAQNQNQVRSPGAPGPLTLKEVEELEQLTQQLMQDMEHPQRQNVAVNELCGRCHQPLARAQPAVRALGQLFHIACFTCHQCAQQLQGQQFYSLEGAPYCEGCYTDTLEKCNTCGEPITDRMLRATGKAYHPHCFTCVVCARPLEGTSFIVDQANRPHCVPDYHKQYAPRCSVCSEPIMPEPGRDETVRVVALDKNFHMKCYKCEDCGKPLSIEADDNGCFPLDGHVLCRKCHTARAQT
# partner: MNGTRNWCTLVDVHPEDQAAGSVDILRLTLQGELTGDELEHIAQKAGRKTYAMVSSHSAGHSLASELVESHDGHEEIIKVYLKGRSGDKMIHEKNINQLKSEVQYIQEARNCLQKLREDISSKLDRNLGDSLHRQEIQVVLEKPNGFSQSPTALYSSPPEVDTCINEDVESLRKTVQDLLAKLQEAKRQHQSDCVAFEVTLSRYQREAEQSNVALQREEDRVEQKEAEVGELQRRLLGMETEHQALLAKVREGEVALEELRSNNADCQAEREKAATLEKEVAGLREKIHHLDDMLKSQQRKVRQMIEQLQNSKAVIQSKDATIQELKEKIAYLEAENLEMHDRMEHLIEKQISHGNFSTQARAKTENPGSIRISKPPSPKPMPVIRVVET
# Variants of: B1
# Settings: with kanl1_human KANSL1, Q7Z3B3
row,Variant,effect of a mutation on the interaction
1,P389A,with no effect

# Variants of: B2
# Settings: with crct1_human CRCT1, Q9UGL9
row,Variant,effect of a mutation on the interaction
1,R74Q,with no effect
2,A115T,with no effect

# Variants of: B3
# Settings: with hm20a_human HMG20A
row,Variant,effect of a mutation on the interaction
1,G12D,with no effect

# Variants of: B4
# Settings: with tuft1_human TUFT1, Q9NNX1
row,Variant,effect of a mutation on the interaction
1,H223L,with no effect
2,R563Q,with no effect
